Results from the supplement of paper PMC10065799, “High-throughput profiling of sequence recognition by tyrosine kinases and SH2 domains using bacterial peptide display” (eLife, 2023).

Each sequence was assayed on AncSZ (assay: phosphorylation enrichment, bacterial display (enrichment ratio); higher = better substrate or ligand; peptides without Tyr show the background).
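Further: 11-residue human phosphosite peptides and single-mutation variants displayed on the E. coli surface, counted by deep sequencing, each peptide's frequency after selection divided by its frequency in the unselected input library; frequency after pTyr selection over input frequency; kinase dosed for 20-30% of maximal phosphorylation in three min.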

| Sequence | phosphorylation enrichment |
| --- | --- |
| DISEPYEVFRI [IRF8_Y107_K108E_YF] | 2.21 |
| VLALWYYYLTH [ZDHHC23_Y127] | 1.45 |
| KPPPSYESEEE [BRD4_Y599_T598S] | 1.42 |
| IVKAFYVRARA [AIPL1_Y268_YF] | 1.11 |
| GYAGKYIAMVM [CYP19A1_Y441_C437Y] | 0.752 |
| PLGVLYKVKVF [PTS_Y128_V124L_YF] | 1.54 |
| QLDQHYLLVPE [DDX49_Y223_R222H] | 1.16 |
| APSHAYHRGVL [ANO1_Y981_G983R] | 0.507 |
| WRVIGYHVVVW [ATP13A2_Y50] | 1.21 |
| FSIAQYCCRMG [LRRK2_Y2023_G2019S_YF] | 0.839 |
| SLNAVYPKAGS [OAS3_Y376_R378K] | 0.562 |
| FLAATYPTVGQ [NF1_Y2508_YF] | 0.548 |
| SGDDGYAKDAK [TENM4_Y1530] | 0.836 |
| TDIVAYSGWVQ [SPTBN2_Y477_R480W] | 1.03 |
| THPFPYLSLEI [MLH1_Y293_L292P] | 0.909 |
| METKGYQSLPE [NR3C2_Y6_H7Q] | 0.682 |
| QDIMAYRSREV [BCL6_Y157_G159S] | 0.569 |
| KPIETYFSKNF [PLP1_Y50_L46P_YF] | 0.656 |
| HYECKYVINAI [MAOA_Y268] | 1.38 |
| PLDGEYSTLQI [TP53_Y327_F328S] | 2.13 |
| LSVMSYDLGMF [GBA3_Y174] | 1.31 |
| ACEVLYNIAFM [NCF2_Y125] | 2.01 |
| LWKWKYEELKE [CCDC102B_Y299] | 1.28 |
| DLDATYRPMFS [JUP_Y701_M697L_YF] | 0.722 |
| HDRNTYEKYLE [TF_Y666_G671E] | 1.07 |
| NPQKSYFICLY [WAS_Y83_R86C] | 1.11 |
| LLVVLCKYRCY [PSEN1_Y154_Y154C] | 0.873 |
| DISEPYEVYRI [IRF8_Y107_K108E] | 2.01 |
| CTTIHYNYMHN [TP53_Y234_C238H] | 0.692 |

These sequences were tested against EPHB1 (UniProt P54762) in the same assay as above.
EPHB1, sequence (P54762 whole entry, looked up): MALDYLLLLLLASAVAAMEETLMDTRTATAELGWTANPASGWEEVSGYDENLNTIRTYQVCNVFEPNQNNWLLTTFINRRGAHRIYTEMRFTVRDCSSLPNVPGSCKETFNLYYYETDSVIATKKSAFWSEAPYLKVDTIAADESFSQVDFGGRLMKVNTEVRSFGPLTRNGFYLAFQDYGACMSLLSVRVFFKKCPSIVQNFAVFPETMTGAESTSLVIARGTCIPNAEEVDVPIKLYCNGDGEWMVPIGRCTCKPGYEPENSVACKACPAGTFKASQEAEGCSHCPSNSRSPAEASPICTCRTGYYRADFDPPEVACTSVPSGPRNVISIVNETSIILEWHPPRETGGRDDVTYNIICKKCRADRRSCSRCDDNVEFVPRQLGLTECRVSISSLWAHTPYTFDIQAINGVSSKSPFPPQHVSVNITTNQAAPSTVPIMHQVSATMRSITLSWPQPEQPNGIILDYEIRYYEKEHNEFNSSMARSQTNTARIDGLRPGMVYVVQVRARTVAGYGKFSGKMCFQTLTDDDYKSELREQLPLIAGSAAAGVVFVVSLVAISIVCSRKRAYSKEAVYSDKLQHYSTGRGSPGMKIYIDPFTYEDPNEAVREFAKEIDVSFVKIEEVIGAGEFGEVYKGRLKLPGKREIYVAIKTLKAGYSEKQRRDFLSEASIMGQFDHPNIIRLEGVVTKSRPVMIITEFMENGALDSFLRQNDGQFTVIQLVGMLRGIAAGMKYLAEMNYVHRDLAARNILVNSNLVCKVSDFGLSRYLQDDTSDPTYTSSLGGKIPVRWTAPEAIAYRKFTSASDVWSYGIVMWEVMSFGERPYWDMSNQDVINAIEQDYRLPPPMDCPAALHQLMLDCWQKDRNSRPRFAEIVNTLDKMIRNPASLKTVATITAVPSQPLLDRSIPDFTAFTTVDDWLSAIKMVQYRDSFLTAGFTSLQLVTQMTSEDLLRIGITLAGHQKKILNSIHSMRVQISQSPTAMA

| Sequence | phosphorylation enrichment |
| --- | --- |
| DISEPYEVFRI [IRF8_Y107_K108E_YF] | 0.665 |
| VLALWYYYLTH [ZDHHC23_Y127] | 0.81 |
| KPPPSYESEEE [BRD4_Y599_T598S] | 0.611 |
| IVKAFYVRARA [AIPL1_Y268_YF] | 0.5 |
| GYAGKYIAMVM [CYP19A1_Y441_C437Y] | 0.525 |
| PLGVLYKVKVF [PTS_Y128_V124L_YF] | 0.922 |
| QLDQHYLLVPE [DDX49_Y223_R222H] | 1.21 |
| APSHAYHRGVL [ANO1_Y981_G983R] | 0.363 |
| WRVIGYHVVVW [ATP13A2_Y50] | 0.695 |
| FSIAQYCCRMG [LRRK2_Y2023_G2019S_YF] | 0.684 |
| SLNAVYPKAGS [OAS3_Y376_R378K] | 0.296 |
| FLAATYPTVGQ [NF1_Y2508_YF] | 0.444 |
| SGDDGYAKDAK [TENM4_Y1530] | 0.454 |
| TDIVAYSGWVQ [SPTBN2_Y477_R480W] | 0.684 |
| THPFPYLSLEI [MLH1_Y293_L292P] | 0.502 |
| METKGYQSLPE [NR3C2_Y6_H7Q] | 0.495 |
| QDIMAYRSREV [BCL6_Y157_G159S] | 0.456 |
| KPIETYFSKNF [PLP1_Y50_L46P_YF] | 0.506 |
| HYECKYVINAI [MAOA_Y268] | 0.841 |
| PLDGEYSTLQI [TP53_Y327_F328S] | 1.27 |
| LSVMSYDLGMF [GBA3_Y174] | 0.876 |
| ACEVLYNIAFM [NCF2_Y125] | 0.983 |
| LWKWKYEELKE [CCDC102B_Y299] | 0.92 |
| DLDATYRPMFS [JUP_Y701_M697L_YF] | 0.636 |
| HDRNTYEKYLE [TF_Y666_G671E] | 0.505 |
| NPQKSYFICLY [WAS_Y83_R86C] | 0.675 |
| LLVVLCKYRCY [PSEN1_Y154_Y154C] | 0.532 |
| DISEPYEVYRI [IRF8_Y107_K108E] | 0.425 |
| CTTIHYNYMHN [TP53_Y234_C238H] | 0.528 |

Each sequence was assayed against EPHB2 (UniProt P29323) in the same assay as above.
EPHB2, sequence (P29323 whole entry, looked up): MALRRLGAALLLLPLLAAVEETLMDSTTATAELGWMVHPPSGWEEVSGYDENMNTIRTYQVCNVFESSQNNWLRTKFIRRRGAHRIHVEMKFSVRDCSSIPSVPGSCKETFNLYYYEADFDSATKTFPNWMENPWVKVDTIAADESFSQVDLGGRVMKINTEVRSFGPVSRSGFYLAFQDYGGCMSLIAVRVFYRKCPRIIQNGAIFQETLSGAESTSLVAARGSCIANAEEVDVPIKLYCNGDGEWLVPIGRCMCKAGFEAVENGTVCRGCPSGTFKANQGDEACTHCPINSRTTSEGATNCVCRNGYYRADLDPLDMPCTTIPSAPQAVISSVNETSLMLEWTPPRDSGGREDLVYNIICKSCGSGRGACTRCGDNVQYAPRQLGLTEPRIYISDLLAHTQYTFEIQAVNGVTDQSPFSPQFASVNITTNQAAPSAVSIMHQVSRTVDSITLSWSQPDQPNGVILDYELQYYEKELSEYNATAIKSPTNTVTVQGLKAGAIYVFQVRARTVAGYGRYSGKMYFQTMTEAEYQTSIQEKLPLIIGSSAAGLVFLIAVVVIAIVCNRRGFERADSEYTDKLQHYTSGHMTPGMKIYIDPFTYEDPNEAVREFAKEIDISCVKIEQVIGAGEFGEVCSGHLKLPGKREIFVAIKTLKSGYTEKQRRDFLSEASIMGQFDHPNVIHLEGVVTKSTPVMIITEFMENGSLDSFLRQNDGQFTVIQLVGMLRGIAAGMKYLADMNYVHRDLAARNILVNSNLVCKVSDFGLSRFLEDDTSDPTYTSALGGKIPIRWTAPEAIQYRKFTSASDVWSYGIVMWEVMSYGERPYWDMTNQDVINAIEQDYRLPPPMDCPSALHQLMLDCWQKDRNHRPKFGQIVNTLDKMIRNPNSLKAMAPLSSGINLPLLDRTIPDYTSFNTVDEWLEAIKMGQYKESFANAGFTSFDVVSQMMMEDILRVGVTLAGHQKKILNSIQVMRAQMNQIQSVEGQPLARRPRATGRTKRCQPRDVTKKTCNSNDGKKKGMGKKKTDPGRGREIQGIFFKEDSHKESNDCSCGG

| Sequence | phosphorylation enrichment |
| --- | --- |
| DISEPYEVFRI [IRF8_Y107_K108E_YF] | 0.559 |
| VLALWYYYLTH [ZDHHC23_Y127] | 0.74 |
| KPPPSYESEEE [BRD4_Y599_T598S] | 0.761 |
| IVKAFYVRARA [AIPL1_Y268_YF] | 0.588 |
| GYAGKYIAMVM [CYP19A1_Y441_C437Y] | 0.483 |
| PLGVLYKVKVF [PTS_Y128_V124L_YF] | 0.824 |
| QLDQHYLLVPE [DDX49_Y223_R222H] | 1.09 |
| APSHAYHRGVL [ANO1_Y981_G983R] | 0.355 |
| WRVIGYHVVVW [ATP13A2_Y50] | 0.692 |
| FSIAQYCCRMG [LRRK2_Y2023_G2019S_YF] | 5.07 |
| SLNAVYPKAGS [OAS3_Y376_R378K] | 0.383 |
| FLAATYPTVGQ [NF1_Y2508_YF] | 0.494 |
| SGDDGYAKDAK [TENM4_Y1530] | 0.623 |
| TDIVAYSGWVQ [SPTBN2_Y477_R480W] | 0.532 |
| THPFPYLSLEI [MLH1_Y293_L292P] | 0.474 |
| METKGYQSLPE [NR3C2_Y6_H7Q] | 0.449 |
| QDIMAYRSREV [BCL6_Y157_G159S] | 0.343 |
| KPIETYFSKNF [PLP1_Y50_L46P_YF] | 0.497 |
| HYECKYVINAI [MAOA_Y268] | 0.788 |
| PLDGEYSTLQI [TP53_Y327_F328S] | 1.17 |
| LSVMSYDLGMF [GBA3_Y174] | 0.707 |
| ACEVLYNIAFM [NCF2_Y125] | 0.859 |
| LWKWKYEELKE [CCDC102B_Y299] | 0.493 |
| DLDATYRPMFS [JUP_Y701_M697L_YF] | 0.557 |
| HDRNTYEKYLE [TF_Y666_G671E] | 0.595 |
| NPQKSYFICLY [WAS_Y83_R86C] | 0.604 |
| LLVVLCKYRCY [PSEN1_Y154_Y154C] | 0.466 |
| DISEPYEVYRI [IRF8_Y107_K108E] | 0.634 |
| CTTIHYNYMHN [TP53_Y234_C238H] | 0.536 |

These sequences were tested against FGFR1 (UniProt P11362) in the same assay as above.
FGFR1, sequence (P11362 whole entry, looked up): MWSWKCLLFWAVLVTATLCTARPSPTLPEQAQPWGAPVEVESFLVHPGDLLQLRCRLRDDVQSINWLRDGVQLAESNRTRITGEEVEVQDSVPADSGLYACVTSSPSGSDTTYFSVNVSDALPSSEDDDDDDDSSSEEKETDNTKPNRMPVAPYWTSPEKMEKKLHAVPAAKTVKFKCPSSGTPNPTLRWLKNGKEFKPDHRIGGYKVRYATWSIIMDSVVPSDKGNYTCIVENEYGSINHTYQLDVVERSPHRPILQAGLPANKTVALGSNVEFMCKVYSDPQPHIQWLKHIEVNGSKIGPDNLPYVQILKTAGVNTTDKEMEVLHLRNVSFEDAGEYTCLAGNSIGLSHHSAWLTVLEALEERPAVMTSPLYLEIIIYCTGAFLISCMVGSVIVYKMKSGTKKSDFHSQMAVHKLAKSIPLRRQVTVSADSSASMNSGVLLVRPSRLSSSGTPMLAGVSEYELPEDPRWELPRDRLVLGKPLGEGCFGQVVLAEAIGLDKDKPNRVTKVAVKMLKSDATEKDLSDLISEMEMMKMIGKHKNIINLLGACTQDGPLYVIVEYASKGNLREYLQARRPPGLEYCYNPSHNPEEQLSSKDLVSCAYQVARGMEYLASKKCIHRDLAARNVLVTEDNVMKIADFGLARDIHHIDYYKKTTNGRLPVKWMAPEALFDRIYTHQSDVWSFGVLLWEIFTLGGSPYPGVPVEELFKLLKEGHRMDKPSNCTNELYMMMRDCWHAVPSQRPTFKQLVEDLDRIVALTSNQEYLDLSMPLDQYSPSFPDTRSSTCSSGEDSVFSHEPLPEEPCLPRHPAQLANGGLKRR

| Sequence | phosphorylation enrichment |
| --- | --- |
| DISEPYEVFRI [IRF8_Y107_K108E_YF] | 0.661 |
| VLALWYYYLTH [ZDHHC23_Y127] | 6.87 |
| KPPPSYESEEE [BRD4_Y599_T598S] | 0.584 |
| IVKAFYVRARA [AIPL1_Y268_YF] | 0.464 |
| GYAGKYIAMVM [CYP19A1_Y441_C437Y] | 0.521 |
| PLGVLYKVKVF [PTS_Y128_V124L_YF] | 0.562 |
| QLDQHYLLVPE [DDX49_Y223_R222H] | 1.6 |
| APSHAYHRGVL [ANO1_Y981_G983R] | 0.395 |
| WRVIGYHVVVW [ATP13A2_Y50] | 0.551 |
| FSIAQYCCRMG [LRRK2_Y2023_G2019S_YF] | 0.479 |
| SLNAVYPKAGS [OAS3_Y376_R378K] | 0.427 |
| FLAATYPTVGQ [NF1_Y2508_YF] | 0.357 |
| SGDDGYAKDAK [TENM4_Y1530] | 0.501 |
| TDIVAYSGWVQ [SPTBN2_Y477_R480W] | 0.573 |
| THPFPYLSLEI [MLH1_Y293_L292P] | 0.657 |
| METKGYQSLPE [NR3C2_Y6_H7Q] | 0.449 |
| QDIMAYRSREV [BCL6_Y157_G159S] | 0.285 |
| KPIETYFSKNF [PLP1_Y50_L46P_YF] | 0.417 |
| HYECKYVINAI [MAOA_Y268] | 0.557 |
| PLDGEYSTLQI [TP53_Y327_F328S] | 1.77 |
| LSVMSYDLGMF [GBA3_Y174] | 0.789 |
| ACEVLYNIAFM [NCF2_Y125] | 0.976 |
| LWKWKYEELKE [CCDC102B_Y299] | 0.573 |
| DLDATYRPMFS [JUP_Y701_M697L_YF] | 0.491 |
| HDRNTYEKYLE [TF_Y666_G671E] | 0.584 |
| NPQKSYFICLY [WAS_Y83_R86C] | 0.848 |
| LLVVLCKYRCY [PSEN1_Y154_Y154C] | 0.414 |
| DISEPYEVYRI [IRF8_Y107_K108E] | 0.736 |
| CTTIHYNYMHN [TP53_Y234_C238H] | 0.479 |
